Measured values as given in patent US20070111265A1, “Ligands for mineralocorticoid receptor (MR) and methods for screening for or designing MR ligands” (Van Andel Research Institute, priority 2005, published 2007).

T1: purified MR/corticosterone complex (MR LBD C808S) (Homo sapiens, UniProt P08235, C808S)
T1 construct: made in house; host or cells: E. coli BL21DE3 (pET24a)
T1 sequence (P08235 727-984 C808S): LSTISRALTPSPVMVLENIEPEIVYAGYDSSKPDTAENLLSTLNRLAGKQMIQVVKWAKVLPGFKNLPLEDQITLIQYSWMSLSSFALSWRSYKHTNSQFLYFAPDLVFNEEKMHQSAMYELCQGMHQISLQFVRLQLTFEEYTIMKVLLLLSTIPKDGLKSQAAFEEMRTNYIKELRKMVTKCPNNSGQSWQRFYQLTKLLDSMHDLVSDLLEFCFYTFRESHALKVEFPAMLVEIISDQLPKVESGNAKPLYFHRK

T2: VP16-MR LBD (Homo sapiens, UniProt P08235)
T2 construct: expressed in transfected cells; host or cells: Cos-7
T2 sequence (P08235 727-984): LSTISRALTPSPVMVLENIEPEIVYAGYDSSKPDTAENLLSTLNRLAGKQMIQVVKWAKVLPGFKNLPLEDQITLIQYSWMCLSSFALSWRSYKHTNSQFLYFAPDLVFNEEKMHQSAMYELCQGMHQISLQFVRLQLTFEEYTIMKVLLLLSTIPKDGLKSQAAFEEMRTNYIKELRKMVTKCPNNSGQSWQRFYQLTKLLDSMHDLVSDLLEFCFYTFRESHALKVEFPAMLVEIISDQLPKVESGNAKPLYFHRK


Experiments:
[1] = biological target: T1, purified MR/corticosterone complex (MR LBD C808S); test: AlphaScreen peptide competition (IC50) of coactivator LXXLL motifs; format: binding
Description: (D) Binding affinity of various coactivator LXXLL motifs to the purified MR/corticosterone complex as determined by IC50 values from peptide competition experiments using AlphaScreen assays. The numbering scheme of the LXXLL motifs is shown on the top of the sequences.
SRC2-(2+3) and […] SRC2 protein fragments containing 2nd and 3rd LXXLL motifs. The 2nd LXXLL motif of SRC2 was mutated to LXXAA in SRC2-(M2+3).
(G) Binding affinity of PGC1α-(1+2), PGC1α-1 and PGC1α-2 to the purified MR/corticosterone complex as determined by IC50 values from peptide competition experiments.
The fusion protein contains a His6-TAG ([…]) at the N terminus and a thrombin protease site between GST and the MR LBD. BL21DE3 cells transformed with this expression plasmid were grown in LB broth at 16° C. to an OD600 of ˜1 and induced with 0.1 mM IPTG and 50 μM corticosterone. Cells were harvested, resuspended in 400 ml extract buffer (50 mM Tris[pH8.0], 150 mM NaCl, 2 M Urea, 10% glycerol) per 24 liters of cells, and passed three times through a French Press with pressure set at […]. […] Both human PGC1α (1+2) (residues 1-220) and SRC2-(2+3) (residues 563-763) were expressed as a 6×His-GST fusion protein from the expression vector pET24a (Novagen). […]
The binding of various peptide motifs to MR was determined by AlphaScreen assays using a hexahistidine detection kit from Perkin-Elmer. […]

VP16-MR LBD = biological target: T2, VP16-MR LBD; test: Mammalian two hybrid assay, pG5Luc reporter; format: cell-based; conditions: 10 nM corticosterone
Description: (C) Mammalian two-hybrid interaction of SRC1 with MR. GAL4-DBD were fused with the SRC1-4 motif (SRC1-4, residues 1240-1441) and two mutated forms of SRC1-4 [SRC1-4(E1441K), corresponding to E+7K mutation of the SRC1-4 motif, and SRC1-M4 (L1438A/L1439A), corresponding to the LXXAA mutation of the SRC1-4 motif], respectively. VP16 were fused with MR LBD and MR LBD (K782E). The cells were cotransfected with GAL4 and VP16 fusion constructs and pG5Luc reporter. The cells were treated with 10 nM corticosterone.
Cos-7 cells were maintained in DMEM containing 10% fetal bovine serum (FBS) and were transiently transfected using Lipofectamine 2000 (Invitrogen). 24-Well plates were plated 24 hr prior to transfection (5×10^4 cells per well). Cells were transfected in Opti-MEM with 400 ng of MMTV-Luc reporter plasmid and 400 ng of receptor expression vector (pRS vector) encoding full-length GR and MR respectively (ATCC). […] For cotransfection of MR and SRC1, 50 ng Gal4-MR LBD was transfected with 200 ng pG5Luc and various amounts of PCR3.1-SRC1 as indicated in the figure legend. 18 hours after transfection, steroids were added in DMEM supplemented with 5% Charcoal/Dextran treated FBS (Hyclone). Cells were harvested 24 hours later for luciferase assays. Luciferase data were normalized to Renilla activity as an internal control. […]

| interaction with MR LBD (VP16-MR LBD) | Molecule | other results |
| --- | --- | --- |
| – | PGC1α-(1+2): purified human PGC1α fragment (residues 1-220) containing both LXXLL motifs (protein, left off: small tags and cut ends; a dimerising Fc or GST, purified human PGC1α fragment (residues 1-220) containing both LXXLL motifs) MAWDMCNQDSESVWSDIECAALVGEDQPLCPDLPELDLSELDVNDLDTDSFLGGLKWCSDQSEIISNQYNNEPSNIFEKIDEENEANLLAVLTETLDSLPVDEDGLPSFDALTDGDVTTDNEASPSSMPDGTPPPQEAEEPSLLKKLLLAPANTQLSYNECSGLSTQNHANHNHRIRTNPAIVKTENSWSNKAKSICQQQKPQRRPCSELLKYLTTNDDP | binding affinity to MR ([1]; compared with single motifs, FIG. 3G): much higher affinity than either motif alone |
| abolished the interaction | SRC1-4M: GAL4-DBD SRC1-4 with LXXAA mutation of the SRC1-4 motif (protein, left off: large carriers; small tags and cut ends, GAL4-DBD SRC1-4 with LXXAA mutation of the SRC1-4 motif) QGEANFAPSLSPGSSMVPMPIPPPQSSLLQQTPPASGYQSPDMKAWQQGAIGNNNVFSQAVQNQPTPAQPGVYNNMSITVSMAGGNTNVQNMNPMMAQMQMSSLQMPGMNTVCPEQINDPALRHTGLYCNQLSSTDLLKTEADGTQQVQQVQVFADVQCTVNLVGGDPYLNQPGPLGTQKPTSGPQTPQAQQKSLLQQAATE | – |
| failed to interact | SRC1-4 E1441K: GAL4-DBD SRC1-4 with E+7K mutation of the SRC1-4 motif (protein, left off: large carriers; small tags and cut ends, GAL4-DBD SRC1-4 with E+7K mutation of the SRC1-4 motif) QGEANFAPSLSPGSSMVPMPIPPPQSSLLQQTPPASGYQSPDMKAWQQGAIGNNNVFSQAVQNQPTPAQPGVYNNMSITVSMAGGNTNVQNMNPMMAQMQMSSLQMPGMNTVCPEQINDPALRHTGLYCNQLSSTDLLKTEADGTQQVQQVQVFADVQCTVNLVGGDPYLNQPGPLGTQKPTSGPQTPQAQQKSLLQQLLTK | – |
| – | SRC2-(M2+3): SRC2 fragment in which the 2nd LXXLL motif was mutated to LXXAA (protein, left off: small tags and cut ends; a dimerising Fc or GST, SRC2 fragment in which the 2nd LXXLL motif was mutated to LXXAA) QNSPVNMNPPPLSKMGSLDSKDCFGLYGEPSEGTTGQAESSCHPGEQKETNDPNLPPAVSSERADGQSRLHDSKGQTKLLQLLTTKSDQMEPSPLASSLSDTNKDSTGSLPGSGSTHGTSLKEKHKILHRAAQDSSSPVDLAKLTAEATGKDLSQESSSTAPGSEVTIKQEPVSPKKKENALLRYLLDKDDTKDIGLPEIT | decrease of binding affinity versus SRC2-(2+3) ([1]; second LXXLL motif mutated): more than 10 fold |
